Reference: patent publication US20050170504

Target: TmHU (HU protein) (Thermotoga maritima) (UniProt P36206)
Assay: SPR
Conditions: transition midpoint of Hill curve, 50 mM sodium phosphate pH 7.5, 100 mM NaCl

Chain of UniProt P36206 (P36206 other isoform, or with tags, fused parts or gaps): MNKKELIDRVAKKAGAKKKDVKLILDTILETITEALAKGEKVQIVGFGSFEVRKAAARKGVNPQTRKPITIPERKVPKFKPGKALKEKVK

| Substance | Kd (Hill coefficient 1.3) [nM] | Kd (Hill coefficient 7.6) [nM] |
| --- | --- | --- |
| 23 bp dsDNA fragment | 73 |  |
| 56 bp dsDNA fragment |  | 73 |
